Among the data in US20050181997A1 are Specific Activity (u/mg) in the Flt3 3T3 assay, Superdex 75 step values, retold here.

For the assay, the target named is Flt3 3T3 cells (mFlt3/fms 3T3 cells and/or Stk 3T3 cells). The experiment in a line: cell-based or functional assay.

In the case of “Pv-FRIL (FRIL family member from Phaseolus vulgaris, red kidney bean)”, the Specific Activity (u/mg) in the Flt3 3T3 assay, Superdex 75 step came to 244000 u/mg.
